Paper doi:10.1101/2020.10.22.351056 (bioRxiv, 2020)

Biological target: Fc-conjugated human angiotensin converting enzyme 2 (ACE2-Fc) (human, UniProt Q9BYF1)
Assay: ELISA

Chain of Fc-conjugated human angiotensin converting enzyme 2 (ACE2-Fc) (Q9BYF1 18-740): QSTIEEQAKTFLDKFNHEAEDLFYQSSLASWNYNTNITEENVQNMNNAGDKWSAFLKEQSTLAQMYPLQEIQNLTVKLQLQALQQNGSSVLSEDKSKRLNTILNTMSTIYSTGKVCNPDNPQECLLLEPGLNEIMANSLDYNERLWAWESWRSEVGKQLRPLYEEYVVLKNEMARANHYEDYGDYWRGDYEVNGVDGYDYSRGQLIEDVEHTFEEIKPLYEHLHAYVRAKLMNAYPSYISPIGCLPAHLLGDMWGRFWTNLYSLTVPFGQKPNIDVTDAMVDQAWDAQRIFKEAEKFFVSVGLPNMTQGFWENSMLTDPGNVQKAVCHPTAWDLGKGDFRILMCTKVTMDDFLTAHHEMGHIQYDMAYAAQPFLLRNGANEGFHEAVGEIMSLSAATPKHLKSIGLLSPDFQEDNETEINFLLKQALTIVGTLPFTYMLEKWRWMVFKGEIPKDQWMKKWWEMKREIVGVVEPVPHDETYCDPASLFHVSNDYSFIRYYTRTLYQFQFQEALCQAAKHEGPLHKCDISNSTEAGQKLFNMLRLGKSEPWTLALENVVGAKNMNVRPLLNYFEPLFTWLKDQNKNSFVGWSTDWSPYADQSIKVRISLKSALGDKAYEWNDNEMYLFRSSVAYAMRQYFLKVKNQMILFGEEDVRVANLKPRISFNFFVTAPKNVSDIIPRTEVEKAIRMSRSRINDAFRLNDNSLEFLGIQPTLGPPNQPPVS

B1: SARS-CoV spike protein S1+S2, His-tagged (domain or fragment)
chain: not shown
Q: Which EC50 does the source give for B1 here?
A: The EC50 was 13.9 nM.
